Experimental data from PMC7772773 (2020).

B1: myc-HTR6 [mouse] / EGFP-RABL2B [human] (parent complex)
chain 1: MVPEPGPVNSSTPAWGPGPPPAPGGSGWVAAALCVVIVLTAAANSLLIALICTQPALRNTSNFFLVSLFTSDLMVGLVVMPPAMLNALYGRWVLARGLCLLWTAFDVMCCSASILNLCLISLDRYLLILSPLRYKLRMTAPRALALILGAWSLAALASFLPLLLGWHELGKARTSAPGQCRLLASLPYVLVASGVTFFLPSGAICFTYCRILLAARKQAVQVASLTTGTATAGQALETLQVPRTPRPGMESADSRRLTTKHSRKALKASLTLGILLSMFFVTWLPFFVASIAQAVCDCISPGLFDVLTWLGYCNSTMNPIIYPLFMRDFKRALGRFVPCVHCPPEHRASPASPSMWTSHSGARPGLSLQQVLPLPLPPNSDSDSASGGTSGLQLTAQLLLPGEATRDPPPPTRAPTVVNFFVTDSVEPEIRQHPLGSPMN
chain 2: MAEDKTKPSELDQGKYDADDNVKIICLGDSAVGKSKLMERFLMDGFQPQQLSTYALTLYKHTATVDGRTILVDFWDTAGQERFQSMHASYYHKAHACIMVFDVQRKVTYRNLSTWYTELREFRPEIPCIVVANKIDDINVTQKSFNFAKKFSLPLYFVSAADGTNVVKLFNDAIRLAVSYKQNSQDFMDEIFQELENFSLEQEEEDVPDQEQSSSIETPSEEAASPHS

Variants of: B1
Experiment: co-immunoprecipitation (IP anti-EGFP, Western blot anti-Myc), IP/input band quantitation; lysates from HEK293T cells; Input is 2.5% of lysate used for IP; parent: 100

percent of parent | Variant
105% | chain 1 MVPEPGPVNSSTPAWGPGPPPAPGGSGWVAAALCVVIVLTAAANSLLIALICTQPALRNTSNFFLVSLFTSDLMVGLVVMPPAMLNALYGRWVLARGLCLLWTAFDVMCCSASILNLCLISLDRYLLILSPLRYKLRMTAPRALALILGAWSLAALASFLPLLLGWHELGKARTSAPGQCRLLASLPYVLVASGVTFFLPSGAICFTYCRILLAAAAAAVQVASLTTGTATAGQALETLQVPRTPRPGMESADSRRLTTKHSRKALKASLTLGILLSMFFVTWLPFFVASIAQAVCDCISPGLFDVLTWLGYCNSTMNPIIYPLFMRDFKRALGRFVPCVHCPPEHRASPASPSMWTSHSGARPGLSLQQVLPLPLPPNSDSDSASGGTSGLQLTAQAAAPGEATRDPPPPTRAPTVVNFFVTDSVEPEIRQHPLGSPMN [chain 1 R216A, chain 1 K217A, chain 1 Q218A, chain 1 L398A, chain 1 L399A, chain 1 L400A]
121% | chain 1 MVPEPGPVNSSTPAWGPGPPPAPGGSGWVAAALCVVIVLTAAANSLLIALICTQPALRNTSNFFLVSLFTSDLMVGLVVMPPAMLNALYGRWVLARGLCLLWTAFDVMCCSASILNLCLISLDRYLLILSPLRYKLRMTAPRALALILGAWSLAALASFLPLLLGWHELGKARTSAPGQCRLLASLPYVLVASGVTFFLPSGAICFTYCRILLAARKQAVQVASLTTGTATAGQALETLQVPRTPRPGMESADSRRLTTKHSRKALKASLTLGILLSMFFVTWLPFFVASIAQAVCDCISPGLFDVLTWLGYCNSTMNPIIYPLFMRDFKRALGRFVPCVHCPPEHRASPASPSMWTSHSGARPGLSLQQVLPLPLPPNSDSDSASGGTSGLQLTAQAAAPGEATRDPPPPTRAPTVVNFFVTDSVEPEIRQHPLGSPMN [chain 1 L398A, chain 1 L399A, chain 1 L400A]
84% | chain 1 MVPEPGPVNSSTPAWGPGPPPAPGGSGWVAAALCVVIVLTAAANSLLIALICTQPALRNTSNFFLVSLFTSDLMVGLVVMPPAMLNALYGRWVLARGLCLLWTAFDVMCCSASILNLCLISLDRYLLILSPLRYKLRMTAPRALALILGAWSLAALASFLPLLLGWHELGKARTSAPGQCRLLASLPYVLVASGVTFFLPSGAICFTYCRILLAAAAAAVQVASLTTGTATAGQALETLQVPRTPRPGMESADSRRLTTKHSRKALKASLTLGILLSMFFVTWLPFFVASIAQAVCDCISPGLFDVLTWLGYCNSTMNPIIYPLFMRDFKRALGRFVPCVHCPPEHRASPASPSMWTSHSGARPGLSLQQVLPLPLPPNSDSDSASGGTSGLQLTAQLLLPGEATRDPPPPTRAPTVVNFFVTDSVEPEIRQHPLGSPMN [chain 1 R216A, chain 1 K217A, chain 1 Q218A]

Variants of: B1
Experiment: as above
Remark: another data set of the same source

percent of parent | Variant
103% | chain 1 MVPEPGPVNSSTPAWGPGPPPAPGGSGWVAAALCVVIVLTAAANSLLIALICTQPALRNTSNFFLVSLFTSDLMVGLVVMPPAMLNALYGRWVLARGLCLLWTAFDVMCCSASILNLCLISLDRYLLILSPLRYKLRMTAPRALALILGAWSLAALASFLPLLLGWHELGKARTSAPGQCRLLASLPYVLVASGVTFFLPSGAICFTYCRILLAARKQAVQVASLTTGTATAGQALETLQVPRTPRPGMESADSRRLTTKHSRKALKASLTLGILLSMFFVTWLPFFVASIAQAVCDCISPGLFDVLTWLGYCNSTMNPIIYPLFMRDFKRALGRFVPCVHCPPEHRASPASPSMWTSHSGARPGLSLQQVLPLPLPPNSDSDSASGGTSGLQLTAQAAAPGEATRDPPPPTRAPTVVNFFVTDSVEPEIRQHPLGSPMN [chain 1 L398A, chain 1 L399A, chain 1 L400A]
